Measurements published in PMC6525205, “Structure of the human frataxin-bound iron-sulfur cluster assembly complex provides insight into its activation mechanism” (Nature Communications, 2019).
Substitutions are numbered along the chain they refer to. In names and notes the source's numbering stands.

B1: human frataxin (FXN) (Δ1-80), wild-type (domain or fragment, UniProt Q16595 81-210, looked up)
chain: SGTLGHPGSLDETTYERLAEETLDSLAEFFEDLADKPYTFEDYDVSFGSGVLTVKLGGDLGTYVINKQTPNKQIWLSSPSSGPKRYDWTGKNWVYSHDGVSLHELLAAELTKALKTKLDLSSLAYSGKDA
notes: frataxin (FXN), human, Δ1-80; Cloned into pCDF-LIC-Bsa4; Two copies of FXN stand in the SDAUF heterodecamer; also called FXN(WT); WT; source: E. coli BL21(DE3)-R3-pRARE2, purified (Ni Sepharose, Superdex S75, TEV, reverse Ni); for cryo-EM co-expressed with the His-ISD11/NFS1/ISCU plasmid and purified as the SDAUF complex
B2: FXN(W155R) (domain or fragment, human, UniProt Q16595 81-210, looked up)
chain: B1 chain with W75R
notes: frataxin (FXN), human, Δ1-80, clinical variant of Friedreich's ataxia; Variant of m1
B3: FXN(N151A) (domain or fragment, human, UniProt Q16595 81-210, looked up)
chain: B1 chain with N71A
notes: frataxin (FXN), human, Δ1-80, site-directed variant; Variant of m1
B4: FXN(P163G) (domain or fragment, human, UniProt Q16595 81-210, looked up)
chain: B1 chain with P83G
notes: frataxin (FXN), human, Δ1-80, site-directed variant (Gly is the bacterial equivalent residue); Variant of m1
B5: FXN(N146K) (domain or fragment, human, UniProt Q16595 81-210, looked up)
chain: B1 chain with N66K
notes: as for B2
B6: FXN(R165C) (domain or fragment, human, UniProt Q16595 81-210, looked up)
chain: B1 chain with R85C
notes: as for B2
B7: FXN(D124A) (domain or fragment, human, UniProt Q16595 81-210, looked up)
chain: B1 chain with D44A
notes: as for B3

Molecular target: T1, NFS1-ISD11-ACP-ISCU complex with biotinylated ISCU (SDAUb) (human | E. coli, UniProt Q9Y697 56-457; Q9HD34 1-91; P0A6A8 1-74; Q9H1K1 35-167, pyridoxal 5′-phosphate covalently-linked to Lys258 | 4′-phosphopantetheine (4′-PP) acyl-chain attached to Ser37 | biotin (site and method not stated))
T1 construct: NFS1 cysteine desulfurase, human, Δ1-55; C-terminal residue printed as His457; ISD11/LYRM4, human; E. coli acyl carrier protein (ACPec), endogenous in the expression host, co-purified; ISCU scaffold protein, human, isoform 1, Δ1-34; the related SDAUF complex holds two copies of each chain; source: purified SDA (E. coli) combined with biotinylated ISCU (E. coli) and isolated on Superdex 200 …
T1 sequence (Q9Y697 56-457, chain 1 of 4): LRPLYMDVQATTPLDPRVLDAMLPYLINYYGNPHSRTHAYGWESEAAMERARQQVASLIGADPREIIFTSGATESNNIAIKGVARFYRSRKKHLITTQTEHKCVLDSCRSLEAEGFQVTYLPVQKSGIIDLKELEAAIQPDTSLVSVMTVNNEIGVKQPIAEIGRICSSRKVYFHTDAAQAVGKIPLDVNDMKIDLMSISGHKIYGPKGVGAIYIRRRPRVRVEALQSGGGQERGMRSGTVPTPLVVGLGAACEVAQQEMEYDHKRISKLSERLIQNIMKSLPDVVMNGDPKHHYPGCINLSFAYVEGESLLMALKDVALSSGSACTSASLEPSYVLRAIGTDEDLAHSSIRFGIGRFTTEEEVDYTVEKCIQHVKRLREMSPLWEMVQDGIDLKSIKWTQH
T1 sequence (Q9HD34 whole entry, chain 2 of 4, canonical isoform): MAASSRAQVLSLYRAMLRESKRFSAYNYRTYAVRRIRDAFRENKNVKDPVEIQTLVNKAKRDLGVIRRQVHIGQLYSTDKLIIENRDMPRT
T1 sequence (P0A6A8 1-74, chain 3 of 4): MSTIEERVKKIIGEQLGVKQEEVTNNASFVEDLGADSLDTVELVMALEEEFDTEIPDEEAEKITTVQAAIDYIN
T1 sequence (Q9H1K1 35-167, chain 4 of 4): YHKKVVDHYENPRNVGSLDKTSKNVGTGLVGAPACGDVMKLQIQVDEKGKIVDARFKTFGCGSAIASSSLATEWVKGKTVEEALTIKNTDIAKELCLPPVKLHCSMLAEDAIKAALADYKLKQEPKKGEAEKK
Assay: BLI; SDAUb complex (biotinylated ISCU) at 0.1 mg/mL loaded on streptavidin sensors; FXN 500 µM to 1 nM in solution; 25 °C; 50 mM HEPES pH 7.5, 200 mM NaCl, 5% glycerol, 2 mM TCEP, 5 mM DTT, 0.5 mg/mL BSA; Kd from response vs. [FXN], one site-specific binding fit
Conditions: both partners purified

Binder | Kd
B1 | 3.32 µM
B2 | 253 µM
B3 | 9.45 µM
B4 | 38.5 µM
B5 | 177 µM
B6 | 134 µM
B7 | 14.4 µM
